US12448423 (Xencor, dated 2025)
Residue numbers refer to the chain shown, from its start. In names and notes the source's numbering stands.

B1: XENP26009 (antibody, V domains shown)
VH: QVQLVQSGAEVKKPGASVKVSCKASGFNIKDTYIHWVRQAPGKGLEWMGRIDPDNGETLYASKFQGRVTITADTSINTAYMELSRLRSDDTAVYYCGRGYGYYVFDHWGQGTTVTVSS
VL: AIKMTQSPSSLSASVGDRVTITCRTSRSISKYLAWYQEKPGKTNKLLIYSGSTLQSGIPSRFSGSGSGTDFTLTISSLQPEDFATYYCQQHNENPLTFGAGTKLEIK
notes: also called OKT8_H2.152_L1.103 one-arm mAb
B2: XENP26019 (antibody, V domains shown)
VH: B1 VH
VL: B1 VL with K31I, S50K, H91A
notes: also called OKT8_H2.152_L1.113 one-arm mAb
B3: XENP26230 (antibody, V domains shown)
VH: B1 VH with I70M
VL: B1 VL
notes: also called OKT8_H2.153_L1.103 one-arm mAb
B4: XENP26231 (antibody, V domains shown)
VH: B1 VH with Y102K
VL: B1 VL
notes: also called OKT8_H2.154_L1.103 one-arm mAb
B5: XENP26232 (antibody, V domains shown)
VH: B1 VH with V104Y
VL: B1 VL
notes: also called OKT8_H2.155_L1.103 one-arm mAb
B6: XENP26233 (antibody, V domains shown)
VH: B1 VH with Y100W
VL: B1 VL
notes: also called OKT8_H2.156_L1.103 one-arm mAb
B7: XENP26234 (antibody, V domains shown)
VH: B1 VH with I70M, Y102K
VL: B1 VL
notes: also called OKT8_H2.157_L1.103 one-arm mAb
B8: XENP26235 (antibody, V domains shown)
VH: B1 VH with I70M, V104Y
VL: B1 VL
notes: also called OKT8_H2.158_L1.103 one-arm mAb
B9: XENP26236 (antibody, V domains shown)
VH: B1 VH with I70M, Y100W
VL: B1 VL
notes: also called OKT8_H2.159_L1.103 one-arm mAb
B10: XENP26237 (antibody, V domains shown)
VH: B1 VH with G56D, I70M
VL: B1 VL
notes: also called OKT8_H2.160_L1.103 one-arm mAb
B11: XENP26238 (antibody, V domains shown)
VH: B1 VH with G56D, Y102K
VL: B1 VL
notes: also called OKT8_H2.161_L1.103 one-arm mAb
B12: XENP26239 (antibody, V domains shown)
VH: B1 VH with G56D, V104Y
VL: B1 VL
notes: also called OKT8_H2.162_L1.103 one-arm mAb
B13: XENP26240 (antibody, V domains shown)
VH: B1 VH with G56D, Y100W
VL: B1 VL
notes: also called OKT8_H2.163_L1.103 one-arm mAb
B14: XENP26241 (antibody, V domains shown)
VH: B1 VH with G56D, I70M, Y102K
VL: B1 VL
notes: also called OKT8_H2.164_L1.103 one-arm mAb
B15: XENP26242 (antibody, V domains shown)
VH: B1 VH with G56D, I70M, V104Y
VL: B1 VL
notes: also called OKT8_H2.165_L1.103 one-arm mAb
B16: XENP26243 (antibody, V domains shown)
VH: B1 VH with G56D, I70M, Y100W
VL: B1 VL
notes: also called OKT8_H2.166_L1.103 one-arm mAb
B17: HIS-tagged human NKG2D (receptor, UniProt P26718 73-216, looked up)
chain: IWSAVFLNSLFNQEVQIPLTESYCGPCPKNWICYKNNCYQFFDESKNWYESQASCMSQNASLLKVYSKEDQDLLKLVKSYHWMGLVHIPTNGSWQWEDGSILSPNLLTIIEMQKGDCALYASSFKGYIENCSTPNTYICMQRTV
notes: Captured on HIS1K biosensors; not shown: HIS tag
B18: XENP27602 (antibody, human IgG1, kappa, V domains shown)
VH: EVQLVQSGAEVKKPGESLRISCKASGYTFTSYWMNWVRQMPGKGLEWMGRIDPYDSETHYNPSFQGHVTISVDKSISTAYLQWSSLKASDTAMYYCAKMGDYSFDYWGQGTLVTVSS
VL: DIQLTQSPSSLSASVGDRVTITCRASGNIHNYLAWYQQKPGKSPKVLVYNAKTLADGVPSRFSGSGSGTDYTLTISSLQPEDFATYYCQHFWSTPWTFGGGTKVEIKR
notes: humanized bivalent anti-NKG2D mAb, IgG1 with ablation variants; also called mAb B[NKG2D]_H2_L1.1_IgG1_PVA_/S267K
B19: XENP27603 (antibody, human IgG1, kappa, V domains shown)
VH: B18 VH
VL: DIQLTQSPDSLAVSLGERATINCKASGNIHNYLAWYQQKPGQSPKVLVYNAKTLADGVPSRFSGSGSGTDYTLTISSLQAEDVAVYYCQHFWSTTWTFGGGTKVEIKR
notes: humanized bivalent anti-NKG2D mAb, IgG1 with ablation variants; also called mAb B[NKG2D]_H2L2_IgG1_PVA_/S267K
B20: XENP27604 (antibody, human IgG1, kappa, V domains shown)
VH: EVQLVESGGGLVQPGGSLRLSCAASGYTFTSYWMNWVRQAPGKGLVWVSRIDPYDSETHYNQKVKGRFTISVDKAKSTAYLQMNSLRAEDTAVYYCAKMGDYSFDYWGQGTLVTVSS
VL: B18 VL with P95T
notes: humanized bivalent anti-NKG2D mAb, IgG1 with ablation variants; also called mAb B[NKG2D]_H3L1_IgG1_PVA_/S267K
B21: XENP27605 (antibody, human IgG1, kappa, V domains shown)
VH: B20 VH
VL: B18 VL
notes: humanized bivalent anti-NKG2D mAb, IgG1 with ablation variants; also called mAb B[NKG2D]_H3_L1.1_IgG1_PVA_/S267K
B22: XENP27606 (antibody, human IgG1, kappa, V domains shown)
VH: B20 VH
VL: B19 VL
notes: humanized bivalent anti-NKG2D mAb, IgG1 with ablation variants; also called mAb B[NKG2D]_H3L2_IgG1_PVA_/S267K
B23: XENP27607 (antibody, human IgG1, kappa, V domains shown)
VH: EVQLVESGGGLVQPGGSLRLSCAVSGFSLTIYGVHWVRQAPGKGLEWVSVIWSGGSTDYNAKVKGRFTISKDNSKRTVYLQMNSLRAEDTAVYYCSRKSHDGYYGVMDYWGQGTTVTVSS
VL: DIQLTQSPDFQSVTPKEKVTITCRASQSIGTSIHWYQQKPDQSPKLLIKYASESISGIPSRFSGSGSGTDFTLTINSLEAEDAATYYCQQSNTWPLTFGAGTKVEIKR
notes: humanized bivalent anti-NKG2D mAb, IgG1 with ablation variants; also called mAb C[NKG2D]_H1L1_IgG1_PVA_/S267K
B24: XENP27608 (antibody, human IgG1, kappa, V domains shown)
VH: B23 VH
VL: DIQLTQSPSSLSASVGDRVTITCRASQSIGTSIHWYQQKPGKSPKLLIKYASESISGIPSRFSGSGSGTDFTLTISSLQPEDFATYYCQQSNTWPLTFGAGTKVEIKR
notes: humanized bivalent anti-NKG2D mAb, IgG1 with ablation variants; also called mAb C[NKG2D]_H1L2_IgG1_PVA_/S267K
B25: XENP27609 (antibody, human IgG1, kappa, V domains shown)
VH: QVQLVQSGAEVKKPGASVKVSCKVSGFSLTIYGVHWVRQAPGQGLEWMGVIWSGGSTDYNAKFQGRVTMTKDNSKRTVYMELSSLRSEDTAVYYCSRKSHDGYYGVMDYWGQGTTVTVSS
VL: B23 VL
notes: humanized bivalent anti-NKG2D mAb, IgG1 with ablation variants; also called mAb C[NKG2D]_H2L1_IgG1_PVA_/S267K
B26: XENP27610 (antibody, human IgG1, kappa, V domains shown)
VH: B25 VH
VL: B24 VL
notes: humanized bivalent anti-NKG2D mAb, IgG1 with ablation variants; also called mAb C[NKG2D]_H2L2_IgG1_PVA_/S267K

Key:
[1] = molecular target: T1, cynomolgus CD8 (captured on the Octet biosensor) (cynomolgus); assay: Octet (BLI); cynomolgus CD8 captured, dipped into multiple concentrations of the one-arm mAb
T1 construct: Construct not described; also called cyno CD8; cyno CD8a

[2] = molecular target: T2, human CD8 (captured on the Octet biosensor) (human, UniProt P01732 22-182, limits assumed); assay: Octet (BLI); human CD8 captured, dipped into multiple concentrations of the one-arm mAb
T2 construct: Construct not described; also called recombinant human CD8a
T2 sequence (P01732 22-182 limits assumed): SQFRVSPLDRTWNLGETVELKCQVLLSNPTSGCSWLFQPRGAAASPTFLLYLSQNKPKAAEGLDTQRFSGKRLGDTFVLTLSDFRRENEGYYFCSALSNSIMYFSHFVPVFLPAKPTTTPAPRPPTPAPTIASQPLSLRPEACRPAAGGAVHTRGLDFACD

XENP27197 = molecular target: T3, XENP27197 (human, UniProt P0DOX7 1-214); assay: Octet (BLI): HIS-tagged human NKG2D captured on HIS1K biosensors, dipped into multiple concentrations of the fusion; global fit, 1:1 Langmuir model
T3 construct: scIL-15/Rα x Fab format; also called NKG2D-targeted IL-15/Rα-Fc fusion based on 1D7B4 and IL-15(N4D/N65D) variant

XENP27145 = molecular target: T4, XENP27145 (human); assay: as above
T4 construct: also called NKG2D-targeted IL-15(N4D/N65D)/Rα-Fc fusion with targeting arm based on MS

HIS-tagged human NKG2D = molecular target: B17; assay: Octet (BLI): His-tagged human NKG2D captured on HIS1K biosensors, dipped into 100 nM bivalent mAb

Binder	Kd [1] [nM]	koff [1] [s⁻¹]	kon [1] [M⁻¹ s⁻¹]	Kd (HIS-tagged human NKG2D) [nM]	koff (HIS-tagged human NKG2D) [s⁻¹]	kon (HIS-tagged human NKG2D) [M⁻¹ s⁻¹]	also measured
B1	77.6	0.00909	117000				
B2	80.7	0.00962	119000				
B3	39.2	0.00967	247000				
B4	95.9	0.00887	92500				Kd [2]: 95.5 nM; koff [2]: 0.0226 s⁻¹; kon [2]: 236000 M⁻¹ s⁻¹
B5	35.7	0.0114	319000				
B6	66.6	0.0133	200000				
B7	55.6	0.00448	80600				Kd [2]: 48.2 nM; koff [2]: 0.0124 s⁻¹; kon [2]: 258000 M⁻¹ s⁻¹
B8	33.5	0.00477	143000				Kd [2]: 1.38 nM; koff [2]: 0.000992 s⁻¹; kon [2]: 718000 M⁻¹ s⁻¹
B9	55.1	0.00672	122000				
B10	67.4	0.00767	114000				
B11	107	0.00894	83900				Kd [2]: 96.6 nM; koff [2]: 0.0262 s⁻¹; kon [2]: 271000 M⁻¹ s⁻¹
B12	66.6	0.00882	133000				
B13	75.4	0.0225	298000				
B14	67	0.00589	88000				Kd [2]: 55.6 nM; koff [2]: 0.0148 s⁻¹; kon [2]: 265000 M⁻¹ s⁻¹
B15	30	0.00968	322000				
B16	55.9	0.0108	192000				Kd [2]: 3.14 nM; koff [2]: 0.00196 s⁻¹; kon [2]: 626000 M⁻¹ s⁻¹
B17							Kd (XENP27197): 8.66 nM; koff (XENP27197): 0.00325 s⁻¹; kon (XENP27197): 375000 M⁻¹ s⁻¹; Kd (XENP27145): 2.45 nM; koff (XENP27145): 0.00123 s⁻¹; kon (XENP27145): 502000 M⁻¹ s⁻¹
B18				1.95	0.00144	740000	
B19				0.703	0.00121	1.73e+06	
B20				1.01	0.00194	1.91e+06	
B21				3.28	0.00943	2.88e+06	
B22				1.15	0.00204	1.77e+06	
B23				0.506	0.000357	706000	
B24				0.371	0.000308	832000	
B25				0.167	8.64e-05	518000	
B26				0.199	0.000145	727000	
